Source: paper PMC10375638
Read-outs that look alike come from different tables or passages of the source.

Experiments:
[1] = molecular target: AP1-mV reporter in Arabidopsis flowers (Arabidopsis thaliana) (UniProt P35631); assay: FRET or BRET; FLIM-FRET (OPA) in young flowers of stable A. thaliana lines; donor AP1-mV, acceptor AP1-mCh or PI-mCh, endogenous promoters, F1 plants; only nuclei with donor and acceptor
[2] = molecular target: APETALA3 (AP3) fused to mVenus, expressed in N. benthamiana (Arabidopsis thaliana) (UniProt P35632); assay: FRET or BRET; FLIM-FRET with one pattern analysis (OPA) in nuclei of transiently expressing N. benthamiana leaf epidermis cells; donor mVenus fusion, acceptor mCherry fusion; BINDING = relative amplitude of the FRET fraction; nucleoli excluded; FRET efficiency only for nuclei with BINDING above 10%
Chain of APETALA3 (AP3) fused to mVenus, expressed in N. benthamiana (Arabidopsis thaliana) (P35632 whole entry, the tested form may be a part): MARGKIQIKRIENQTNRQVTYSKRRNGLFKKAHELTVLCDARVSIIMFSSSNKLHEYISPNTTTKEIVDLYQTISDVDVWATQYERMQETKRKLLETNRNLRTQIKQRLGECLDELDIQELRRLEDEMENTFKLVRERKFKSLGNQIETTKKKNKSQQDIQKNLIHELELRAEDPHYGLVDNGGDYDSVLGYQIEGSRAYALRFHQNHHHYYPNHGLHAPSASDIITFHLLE

[3] = molecular target: … (PI) fused to mVenus, expressed in N. benthamiana (Arabidopsis thaliana) (UniProt P48007); assay: as above
Chain of … (PI) fused to mVenus, expressed in N. benthamiana (Arabidopsis thaliana) (P48007 whole entry, the tested form may be a part): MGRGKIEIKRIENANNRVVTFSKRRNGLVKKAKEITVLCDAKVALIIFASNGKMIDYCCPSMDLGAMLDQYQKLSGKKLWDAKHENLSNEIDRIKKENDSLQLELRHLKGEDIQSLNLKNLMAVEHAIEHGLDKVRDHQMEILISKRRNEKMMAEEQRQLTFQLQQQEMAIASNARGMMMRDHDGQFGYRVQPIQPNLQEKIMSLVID

[4] = molecular target: APETALA1 (AP1) fused to mVenus, expressed in N. benthamiana (Arabidopsis thaliana) (UniProt P35631); assay: as above
Chain of APETALA1 (AP1) fused to mVenus, expressed in N. benthamiana (Arabidopsis thaliana) (P35631 whole entry, the tested form may be a part): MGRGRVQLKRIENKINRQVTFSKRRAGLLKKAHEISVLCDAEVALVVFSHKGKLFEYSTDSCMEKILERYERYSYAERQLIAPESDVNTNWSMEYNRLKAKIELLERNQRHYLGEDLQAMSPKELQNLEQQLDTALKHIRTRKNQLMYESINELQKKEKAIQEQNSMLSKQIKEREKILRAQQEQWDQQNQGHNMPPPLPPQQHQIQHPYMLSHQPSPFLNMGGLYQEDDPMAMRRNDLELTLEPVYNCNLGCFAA

[5] = molecular target: APETALA1 (AP1) fused to mVenus, expressed in N. benthamiana (Arabidopsis thaliana) (UniProt P35631); assay: as above; remark: listed apart in the source
[6] = molecular target: APETALA1 (AP1) fused to mVenus, expressed in N. benthamiana (Arabidopsis thaliana) (UniProt P35631); assay: as above; remark: listed apart in the source

Chain of APETALA1 (AP1) fused to mVenus, expressed in N. benthamiana, P35631 1-256 (natural protein; other documents disagree on this pair) (P35631 whole entry, the tested form may be a part): as above
Chain of AP1-mV reporter in Arabidopsis flowers, P35631 1-256 (natural protein; other documents disagree on this pair) (P35631 whole entry): as the sequence (P35631 whole entry, the tested form may be a part) above

| Substance | BINDING [2] [%] | FRET efficiency [2] [%] | BINDING [3] [%] | FRET efficiency [3] [%] | BINDING [5] [%] | FRET efficiency [5] [%] | further results |
| --- | --- | --- | --- | --- | --- | --- | --- |
| AP1-mV reporter in Arabidopsis flowers, P35631 1-256 (natural protein; other documents disagree on this pair) | – | – | – | – | – | – | BINDING [1]: 8.59%; FRET efficiency [1]: 56.7% |
| APETALA1 (AP1) fused to mCherry, expressed in N. benthamiana (from UniProt P35631 1-256) (natural protein) | 16.5 | 43.6 | 16.1 | 41.5 | – | – | – |
| APETALA1 (AP1) fused to mVenus, expressed in N. benthamiana, P35631 1-256 (natural protein; other documents disagree on this pair) | – | – | – | – | 29.9 | 39 | BINDING [4]: 19.2%; FRET efficiency [6]: 40% |
| APETALA3 (AP3) fused to mCherry, expressed in N. benthamiana (from UniProt P35632 1-232) (natural protein) | – | – | 36 | 38 | – | – | – |
| …3 (SEP3) fused to mCherry, expressed in N. benthamiana (from UniProt O22456 1-251) (natural protein) | – | – | – | – | 36.1 | 42.6 | – |
| … (PI) fused to mCherry, expressed in N. benthamiana (from UniProt P48007 1-208) (natural protein) | 35.2 | 38 | – | – | – | – | – |
